The target in the assay is fbx31_human FBXO31 (UniProt Q5XUX0).
UniProt Q5XUX0, sequence (Q5XUX0 whole entry): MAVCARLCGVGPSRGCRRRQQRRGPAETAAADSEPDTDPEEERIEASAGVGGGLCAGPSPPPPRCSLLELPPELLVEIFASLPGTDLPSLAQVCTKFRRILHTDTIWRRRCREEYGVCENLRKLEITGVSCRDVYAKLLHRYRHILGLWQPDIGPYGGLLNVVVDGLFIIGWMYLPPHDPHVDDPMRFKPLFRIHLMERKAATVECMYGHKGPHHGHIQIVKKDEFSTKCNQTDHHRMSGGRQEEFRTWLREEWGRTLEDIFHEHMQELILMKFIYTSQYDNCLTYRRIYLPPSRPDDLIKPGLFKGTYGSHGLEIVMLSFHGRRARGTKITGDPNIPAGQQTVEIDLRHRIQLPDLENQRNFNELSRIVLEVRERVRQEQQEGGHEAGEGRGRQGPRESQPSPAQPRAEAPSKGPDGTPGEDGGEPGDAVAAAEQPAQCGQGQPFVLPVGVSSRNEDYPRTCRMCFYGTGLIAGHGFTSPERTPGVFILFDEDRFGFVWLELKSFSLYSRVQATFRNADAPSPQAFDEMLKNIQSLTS

On to “Serine-protein kinase ATM (Homo sapiens), Q13315 D2870A;N2875K”, for which the “effect of a mutation on the interaction” value was “disrupting interaction”.
